Results from patent publication US7163921 (dated 2007).
Numbered stars: 1 amine (or outer) side, 2 acyl side, 3 side chain; on linkers, the order of the positions; unused ones are H or OH. Square brackets hold non-standard residues; d marks the D form. * marks the point of attachment. X1 = N‑((R)-1-(2-naphthyl)ethyl)amide, C[C@@H](N*)c1ccc2ccccc2c1; 3,5‑dimethyl‑Tyr = Cc1cc(C[C@H](N[*:1])C(=O)[*:2])cc(C)c1O[*:3]; 6‑guanidinohexyl = N=C(N)NCCCCCC*

B1: Example 27 (N-α-6-guanidinohexyl-3,5-dimethyl-Tyr-3,5-dimethyl-Tyr-N-[(R)-1-(2-naphthyl)ethyl]-argininamide) (peptide)
chain: {6‑guanidinohexyl}-[3,5‑dimethyl‑Tyr]-[3,5‑dimethyl‑Tyr]-Arg-X1
SMILES: Cc1cc(C[C@H](NCCCCCCNC(=N)N)C(=O)N[C@@H](Cc2cc(C)c(O)c(C)c2)C(=O)N[C@@H](CCCNC(=N)N)C(=O)N[C@H](C)c2ccc3ccccc3c2)cc(C)c1O
B2: Example 25 (N-α-6-guanidinohexyl-3,5-dimethyl-Tyr-Tyr-N-[(R)-1-(2-naphthyl)ethyl]-argininamide) (peptide)
chain: {6‑guanidinohexyl}-[3,5‑dimethyl‑Tyr]-Tyr-Arg-X1
SMILES: Cc1cc(C[C@H](NCCCCCCNC(=N)N)C(=O)N[C@@H](Cc2ccc(O)cc2)C(=O)N[C@@H](CCCNC(=N)N)C(=O)N[C@H](C)c2ccc3ccccc3c2)cc(C)c1O
B3: Example 23 (N-α-6-guanidinopentyl-Tyr-Tyr-N-[(R)-1-(2-naphthyl)ethyl]-argininamide) (peptide)
chain: {6‑guanidinopentyl}-Tyr-Tyr-Arg-X1
B4: Example 1 (N-α-6-guanidinohexyl-Tyr-Tyr-Arg-Trp-NH2) (peptide)
chain: {6‑guanidinohexyl}-YYRW-NH2
SMILES: N=C(N)NCCCCCCN[C@@H](Cc1ccc(O)cc1)C(=O)N[C@@H](Cc1ccc(O)cc1)C(=O)N[C@@H](CCCNC(=N)N)C(=O)N[C@@H](Cc1c[nH]c2ccccc12)C(N)=O

Experiments:
[1] = biological target: nociceptin receptor (human, UniProt P41146); assay: competition, [3H]nociceptin, 25C, pH 7.8
[2] = biological target: mu opioid receptor (human, UniProt P35372); assay: competition, [3H]diprenorphine, 25C, pH 7.8
Chain of mu opioid receptor (P35372 whole entry): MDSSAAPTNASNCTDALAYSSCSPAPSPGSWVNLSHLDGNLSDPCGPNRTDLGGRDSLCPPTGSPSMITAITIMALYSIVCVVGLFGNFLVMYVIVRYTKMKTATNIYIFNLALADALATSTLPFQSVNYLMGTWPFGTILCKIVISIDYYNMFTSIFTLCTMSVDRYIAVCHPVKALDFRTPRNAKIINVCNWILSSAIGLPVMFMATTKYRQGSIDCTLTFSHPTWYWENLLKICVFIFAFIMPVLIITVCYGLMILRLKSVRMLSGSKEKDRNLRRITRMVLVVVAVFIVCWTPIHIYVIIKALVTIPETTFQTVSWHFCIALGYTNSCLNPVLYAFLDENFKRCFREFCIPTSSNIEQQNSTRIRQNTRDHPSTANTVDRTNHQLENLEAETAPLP

Chain of nociceptin receptor (P41146 whole entry): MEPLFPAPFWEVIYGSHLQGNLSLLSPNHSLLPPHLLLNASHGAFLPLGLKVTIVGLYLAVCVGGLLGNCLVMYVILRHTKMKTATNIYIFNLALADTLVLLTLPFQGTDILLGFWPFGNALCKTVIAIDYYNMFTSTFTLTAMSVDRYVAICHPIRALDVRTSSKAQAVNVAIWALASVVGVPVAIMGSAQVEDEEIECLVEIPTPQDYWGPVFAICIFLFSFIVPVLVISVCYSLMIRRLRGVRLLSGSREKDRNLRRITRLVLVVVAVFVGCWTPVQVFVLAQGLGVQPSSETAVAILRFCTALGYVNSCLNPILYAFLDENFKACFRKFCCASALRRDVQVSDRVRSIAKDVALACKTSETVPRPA

Binder | Ki [1] [nM] | Ki [2] [nM]
B1 | 0.6 | 10
B2 | 0.9 | 14
B3 | 1.8 | 59
B4 | 0.43 | 40
